Results: patent publication US20110311553A1 (Boehringer Ingelheim, published 2011)

Target: Labeled peptide representing the N-terminus of PAR-2 (FRET peptide)
Test: cell-based or functional assay

FRET Peptide Cleavage IC50 [nM] | Binder
< 30 | Ab4994 IgG4_Pro (antibody, V domains shown) VH: QVQLVESGGGLVQPGGSLRLSCAASGFTFSSYAMNWVRQAPGKGLEWVSAISYSGHLTGYADSVKGRFTISRDNSKNTLYLQMNSLRAEDTAVYYCARIQNDPMDVWGQGTLVTVSS VL: DIELTQPPSVSVAPGQTARISCSGDNLGKKYVQWYQQKPGQAPVLVIYDDSNRPSGIPERFSGSNSGNTATLTISGTQAEDEADYYCSSWDVGSDGWVFGGGTKLTVLG
< 30 | Ab4999 IgG4_Pro (antibody, V domains shown) VH: QVQLVESGGGLVQPGGSLRLSCAASGFTFSSYAMNWVRQAPGKGLEWVSTISYSSSATSYADSVKGRFTISRDNSKNTLYLQMNSLRAEDTAVYYCARIQNDPMDVWGQGTLVTVSS VL: DIELTQPPSVSVAPGQTARISCSGDNLGKKYVQWYQQKPGQAPVLVIYDDSNRPSGIPERFSGSNSGNTATLTISGTQAEDEADYYCQTWDYSSIRDETNVFGGGTKLTVLG
< 30 | Ab5151 IgG4_Pro (light chain of Ab4999 combined with heavy chain of Ab5007) (antibody, V domains shown) VH: QVQLVESGGGLVQPGGSLRLSCAASGFTFSSYAMNWVRQAPGKGLEWVSAISFSGHLTGYADSVKGRFTISRDNSKNTLYLQMNSLRAEDTAVYYCARIQNDPMDVWGQGTLVTVSS VL: DIELTQPPSVSVAPGQTARISCSGDNLGKKYVQWYQQKPGQAPVLVIYDDSNRPSGIPERFSGSNSGNTATLTISGTQAEDEADYYCQTWDYSSIRDETNVFGGGTKLTVLG
< 30 | Ab5007 IgG4_Pro (antibody, V domains shown) VH: QVQLVESGGGLVQPGGSLRLSCAASGFTFSSYAMNWVRQAPGKGLEWVSAISFSGHLTGYADSVKGRFTISRDNSKNTLYLQMNSLRAEDTAVYYCARIQNDPMDVWGQGTLVTVSS VL: DIELTQPPSVSVAPGQTARISCSGDNLGKKYVQWYQQKPGQAPVLVIYDDSNRPSGIPERFSGSNSGNTATLTISGTQAEDEADYYCSSWDVGSDGWVFGGGTKLTVLG
< 30 | Ab4997 IgG4_Pro (antibody, V domains shown) VH: QVQLVESGGGLVQPGGSLRLSCAASGFTFSSYAMNWVRQAPGKGLEWVSAISYNGKLKGYADSVKGRFTISRDNSKNTLYLQMNSLRAEDTAVYYCARIQNDPMDVWGQGTLVTVSS VL: DIELTQPPSVSVAPGQTARISCSGDNLGKKYVQWYQQKPGQAPVLVIYDDSNRPSGIPERFSGSNSGNTATLTISGTQAEDEADYYCSSWDVGSDGWVFGGGTKLTVLG
< 30 | Ab5149 IgG4_Pro (light chain of Ab4999 combined with heavy chain of Ab4997) (antibody, V domains shown) VH: QVQLVESGGGLVQPGGSLRLSCAASGFTFSSYAMNWVRQAPGKGLEWVSAISYNGKLKGYADSVKGRFTISRDNSKNTLYLQMNSLRAEDTAVYYCARIQNDPMDVWGQGTLVTVSS VL: DIELTQPPSVSVAPGQTARISCSGDNLGKKYVQWYQQKPGQAPVLVIYDDSNRPSGIPERFSGSNSGNTATLTISGTQAEDEADYYCQTWDYSSIRDETNVFGGGTKLTVLG
< 30 | Ab5005 IgG4_Pro (antibody, V domains shown) VH: QVQLVESGGGLVQPGGSLRLSCAASGFTFSSYAMNWVRQAPGKGLEWVSTISYSSSATSYADSVKGRFTISRDNSKNTLYLQMNSLRAEDTAVYYCARIQNDPMDVWGQGTLVTVSS VL: DIELTQPPSVSVAPGQTARISCSGDNLGKKYVQWYQQKPGQAPVLVIYDDSNRPSGIPERFSGSNSGNTATLTISGTQAEDEADYYCQSWALVGSSESNVFGGGTKLTVLG
< 30 | Ab5150 IgG4_Pro (light chain of Ab4999 combined with heavy chain of Ab5003) (antibody, V domains shown) VH: QVQLVESGGGLVQPGGSLRLSCAASGFTFSSYAMNWVRQAPGKGLEWVSAISYKGHLTGYADSVKGRFTISRDNSKNTLYLQMNSLRAEDTAVYYCARIQNDPMDVWGQGTLVTVSS VL: DIELTQPPSVSVAPGQTARISCSGDNLGKKYVQWYQQKPGQAPVLVIYDDSNRPSGIPERFSGSNSGNTATLTISGTQAEDEADYYCQTWDYSSIRDETNVFGGGTKLTVLG
< 30 | Ab5003 IgG4_Pro (antibody, V domains shown) VH: QVQLVESGGGLVQPGGSLRLSCAASGFTFSSYAMNWVRQAPGKGLEWVSAISYKGHLTGYADSVKGRFTISRDNSKNTLYLQMNSLRAEDTAVYYCARIQNDPMDVWGQGTLVTVSS VL: DIELTQPPSVSVAPGQTARISCSGDNLGKKYVQWYQQKPGQAPVLVIYDDSNRPSGIPERFSGSNSGNTATLTISGTQAEDEADYYCSSWDVGSDGWVFGGGTKLTVLG
< 30 | Ab4996 IgG4_Pro (antibody, V domains shown) VH: QVQLVESGGGLVQPGGSLRLSCAASGFTFSNHAMHWVRQAPGKGLEWVSAISHPGKFTYYADSVKGRFTISRDNSKNTLYLQMNSLRAEDTAVYYCARHGDGMDYFDFWGQGTLVTVSS VL: DIELTQPPSVSVAPGQTARISCSGDNIGTKYVYWYQQKPGQAPVLVIYDDNNRPSGIPERFSGSNSGNTATLTISGTQAEDEADYYCQSYDSQTMVFGGGTKLTVLG
